Assay results published in patent US20030104635A1, “Screening methods” (AVIDEX LIMITED, priority 1999, published 2003).
Blank lines part the entries; values can stand above or below the substance they belong to.

What was measured:
[1] = biological target: tax 11-19 peptide-HLA-A2 complex (biotinylated); test: SPR (BIAcore 3000), sTCR-specific response over repeated injections after compound mixtures
MHC/peptide complex = settings: cited from earlier work
B7 = settings: read-out: Kd of CD28-B7 interaction; cited from earlier work
[2] = biological target: influenza matrix peptide-HLA-A2 complex (biotinylated) (influenza virus); test: SPR (BIAcore 3000), sTCR-specific response over repeated injections after compound mixtures
[3] = biological target: HLA-A2 (prepared as described in Example A1 and tagged with a biotin molecule); test: SPR (BIAcore 3000), sCD8αα-specific response as a percentage of the initial response
[4] = system: class I MHC-restricted T cells; settings: cited from earlier work

loss of signal over the run [1]: 33%
Substance: A6 soluble T cell receptor (TCR)

Substance: CD8: T cell coreceptor binding class I MHC/peptide complex
off rate from an MHC/peptide complex (MHC/peptide complex): approximately 10 s^−1
Kd (MHC/peptide complex; read-out: Kd of interaction with MHC/peptide complex): ~500 µM

Substance: CD28: receptor with low affinity interaction with B7
Kd (B7): ~4 µM

Substance: JM22 soluble T cell receptor (TCR)
loss of signal after 10 mixtures [2]: 10.2%
loss of signal over the run [2]: 9.3%

loss of signal over the run [3]: 3.6%
Substance: recombinant soluble form of CD8 (sCD8αα) (from UniProt P01732 22-141) (receptor)

Substance: soluble, recombinant CD8: soluble, recombinant CD8 derived from the human coreceptor
inhibition of class I MHC-restricted T cells responses [4]: potent inhibitor
